Results as given in the supplement of paper PMC9170038.

System: MS2 coat protein
Test: apparent KD of MS2 coat protein; higher = weaker reporter binding
Settings: Eterna round: R107
Outline: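 Each design's apparent KD comes from the median of binding-curve fits to its normalised clusters. Those clusters carried RNA switches transcribed on-chip from Illumina sequencing clusters. SNAP-549-labelled MS2 coat protein was titrated onto them in twofold steps (0.7 or 1.5 nM to 3 µM; per step 0.8–1.5 h down to 10–20 min). Conditions were 100 mM Tris-HCl pH 7.5, 80 mM KCl, 4 mM MgCl2, without or with constant ligand.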

[1] = input ligand: theophylline 20 uM
[2] = input ligand: theophylline 2 mM
[3] = input ligand: tryptophan 2.4 mM

| Sequence | apparent KD of MS2 coat protein (input ligand: arginine 13.2 mM) [nM] | apparent KD of MS2 coat protein [1] [nM] | apparent KD of MS2 coat protein [2] [nM] | apparent KD of MS2 coat protein (input ligand: none) [nM] | apparent KD of MS2 coat protein [3] [nM] |
| --- | --- | --- | --- | --- | --- |
| GGAUCAGGAUCGGCCGCCACUGAUAGUGAUCCAACGACAUGAGGAUCACCCAUGUACAUUUUAAUCAGGACCGGGAUCAAGUUCC [Tryp B Ex t7] | 40 | 189 | 327 |  |  |
| GGAUUACGAAAGUAGUCCUCAAGUUCGAGACGAGGACCGGUACGGCCGCCACUCGAACAUGAGGAUCACCCAUGUAGCGAAAGCU [Tryptophan A 22] | 86.6 | 382 | 425 | 195 | 181 |
| GGCACAUAGUCGGCCGCCACUAGAAUAUAGUGGAAUAACAUGAGGAUCACCCAUGUAUUUGGGACUAGGACCGGGACUAUGUGCC [Bear] | 33.2 | 41.9 | 42.2 | 33.7 | 20.2 |
| GGCACAUAGUCGGCCGCCACUAGUGGGAAAUGGGAGAACAUGAGGAUCACCCAUGUAUUAUAGCCUAGGACCGGGACUAUGUGCC [Mammoth] | 145 | 196 | 259 |  |  |
| GGCCCACAUGAGGAUCACCCAUGUGUGGAUACCAGCCUCAUUUAGGGCCCUUGGCAGCCAGAUAGUAACAAGUCCGAAACACAGA [theeternabot_sameState_MS2_Theo_A_24] | 26.2 | 203 |  |  | 144 |
| GGCCGGUGCGCUUUGAAGCGACGGCGUGAUACCAGAUGUAAGAGCGUCCCUUGGCAGCACGUUUACAUGAGGAUCACCCAUGUCU [Zaveusxe] | 53.2 | 256 |  |  | 220 |
| GGGUAAGAUCCGGAUACCAGCGAACAUGAGGAUCACCCAUGUGACCUAAGAUAGGCUAAACGCCCUUGGCAGCCGAAAUAGCGUU [Same State Theophylline B GF 5] | 24.9 | 43 | 38.2 | 36.4 | 39.5 |
| GGGUACAUCGCGGCCGCCACUCAUGUAAAUGCAUGAGGAUCACCCAUGUCGAUGGAGACAUCGGAGAGGACCGGGUGAUGUACCG | 108 | 268 | 313 | 259 | 193 |
| GGGUACAUCGCGGCCGCCACUCGUGUAAAUACAUGAGGAUCACCCAUGUCGAUGGAGACAUCGGCGAGGACCGGGUGAUGUACCG | 43.1 | 54.2 | 53.5 | 47.5 | 11.5 |
| GGUAACUCUACGGCCGCCACUGAACAUGAGGAUCACCCAUGUAAUGUUCAGAUUUUUUUUUUUUACAGGACCGGGUAGUGUUACC [Tryptophan B 4] | 107 | 276 | 275 |  |  |
| GGUACAUGAGGAUCACCCAUGUAUUAGUGCCGAGGACCGGUACGGCCGCCACUCGCUUCACAUGAGGAUCACCCAUGUGUCACUG [SSTA DOUBLE!!! :-D #14] | 23.6 | 35.9 | 36.1 |  |  |
| GGUAUGUAUUCGGAAACGAAUGCAUACCAACGAGGACCGGUACGGCCGCCACUCGCCGUCCUCAAACAUGAGGAUCACCCAUGUA [Ex Tryptophan A 7] | 19.5 | 30.5 | 30.6 |  |  |
| GGUAUGUAUUCGGAAACGAAUGCAUACCAACGAGGACCGGUACGGCCGCCACUCGGGCCGUGAUCACAUGAGGAUCACCCAUGUA [Ex Tryptophan A 5] | 29.8 | 49.2 | 42.3 |  |  |
| GGUCCCGUCGGAAGGAGCGACAUGAGGAUCACCCAUGUCUCCCGUUAUGGGAGUUCUUUAGGUCAGGUAGGUCGCCGGCGGGAGC [#1 Exclusion - Arginine B Attempt #15 (Inspired by Omei)] | 52.4 | 123 | 141 | 94.5 | 74 |
| GGUGGACUUUCGGCCGCCACUGAGAGAGUCGUGUGAACAUGAGGAUCACCCAUGUAAUAUAUAUACAGGACCGGGAGGGUUGUCC [4.O] | 20.6 | 28.7 | 25 |  |  |
| GGUGGCUGGAUUGAUACCAGCCACCACCGAUAGACCACAUGAGGAUCACCCAUGUUGGGUGGCCCUUGGCAGCAGUCCAGCUGCC [#1 Same State - Theophylline B Attempt #9 (HarryS)] | 70.5 | 649 | 828 | 388 | 886 |
| GGUGGGACUUGUGAUACCAGCCCAGUUCUAAUCGAACUGCACAUGAGGAUCACCCAUGUCGGCCCUUGGCAGCAUGAGUAUUUAU [Esceesor] | 146 | 160 |  |  | 326 |
| GGUUACUCUACGGCCGCCACUGGGCAUGUAAAUAACAUGAGGAUCACCCAUGUGGAAUAAAAUUACAGGACCGGGUAGUGUAACC [Tryptophan B 22] | 105 | 270 | 352 |  |  |
| GUAGCUGAGUGUGAUACCAGAAACGACGUCCUUUAUCAUAACAUGAGGAUCACCCAUGUCUUCCCUUGGCAGCACUUUUCGGUCU [theeternabot_exclusion_MS2_Theo_B_24] | 29.6 | 53.6 |  |  | 34.7 |

| Sequence | apparent KD of MS2 coat protein (input ligand: arginine 13.2 mM) [nM] | apparent KD of MS2 coat protein [1] [nM] | apparent KD of MS2 coat protein [2] [nM] | apparent KD of MS2 coat protein (input ligand: none) [nM] | apparent KD of MS2 coat protein [3] [nM] |
| --- | --- | --- | --- | --- | --- |
| GUAGGUCUCAUGGGUGGACCUACACUGGAAGGAGCGAGCGAAAGCUCAGGUAGGUCGCCAGAAACAUGAGGAUCACCCAUGUAAU [(A)''-(M)'-(A)'-(Arg1)-(Arg2)-(M1)-(M2)_Design1] | 72.3 | 144 | 288 | 360 | 320 |
| GUCUGAGUCUGAAGGAGCGACAUGAGGAUCACCCAUGUCUCCCGUUAUGGGAGUUCCUUAGGUCAGGUAGGUCGCAGACUCAGAC [#1 Exclusion - Arginine B Attempt #26 (Inspired by Omei)] | 60.9 | 139 | 172 | 145 | 108 |
| GUGUACAUGAGGAUCACCCAUGUCGAGUUACGAGGACCGGUACGGCCGCCACUCGGCGGCUCGACACGGAUAGCGGUGCGUUGCU [Exclusion - Tryptophan A] | 18.2 | 40.8 | 35.4 | 33.2 | 129 |
| UAAAACAUGAGGAUCACCCAUGUAAUUGAUACCAGAGUGAUGAUCCUCCCUUGGCAGCAAAUAACGCAUUGAUUACAAUGCGAAA [Mat - Same State Theophlline A - Mod of Eli - D27] | 27.9 | 105 |  |  | 35 |
| UAAACUACACAUGAGGAUCACCCAUGUGGCCGAGGACCGGUACGGCCGCCACUCGUGUGUUAAUAAUAGAACUGCAAGGUUCUGU [Enindidiso] | 75.6 | 228 | 272 |  |  |
| UAAUAAAUAAAUCCAAGGUGAAGGUCAGAUACCAGCCAGAUAACUGGCCCUUGGCAGCUGAAUAAACUUGAGGAUCACCCAGGUA [TheoAS 27 #OpenEnded #MS2Late #AlternativeMS2] | 45.4 | 135 | 548 | 63.1 | 55.6 |
| UAAUAAAUAAAUCCAAGGUGAAGGUCAGAUACCAGCCAGAUAACUGGCCCUUGGCAGCUGAAUAAGCUUGAGGAUCACCCAAGUA [TheoAS 26 #OpenEnded #MS2Late #AlternativeMS2] | 27.5 | 68.4 | 275 |  | 32.8 |
| UAAUAAAUAAAUCCAAGGUGUAGGUCAGAUACCAGCCAGAUAACUGGCCCUUGGCAGCUGAAUAAACCUGAGGAACACCCAGGUA [TheoAS 24 #OpenEnded #MS2Late #AlternativeMS2] | 26.7 | 49.5 | 197 | 31.6 | 27.3 |
| UAAUAAUUCCUCAUGUCACGAGUGGCAUAACGAGGACCGGUACGGCCGCCACUCGAACAUGAGGAUCACCCAUGUAGCCACUCGA [M'-T'-T-MS2-T'' - Design 4] | 56.7 | 286 | 474 |  |  |
| UACAGUACAACAGAUACCAGACAGUACUCUAGAUUGCAACAUGAGGAUCACCCAUGUAUAGUCCCUUGGCAGCUGUAAUGGGUGA [Theo B SS s1] | 142 | 195 |  |  | 77.2 |
| UACAUGAGGAUCACCCAUGUAUAGAGGGAUACCAGUGUCAGUGAGCACCCUUGGCAGCCCGCGAACAAUGGGUGCGCUAUAUAGU [#20 Exclusion-TheophyllineA] | 18.2 | 46.8 |  |  | 28 |
| UACAUGAGGAUCACCCAUGUAUUGCCGGUACGAGGACCGGUACGGCCGCCACUCGGAGCAUGAGGAUCACCCAUGUGCUGCUAUG [Same State Trypophan A GF 24] | 35.5 | 67.1 | 83.7 |  |  |
| UAGGUGAUCUUCAACGGAAAACGUUGUGAUACCAGCCAACAAUACGGCCCUUGGCAGCACAUGAGGAUCACCCAUGUGUACACCG [Vetizaatdi] | 25.6 | 48.7 |  |  | 30.6 |
| UAUAAAAUAACAGAUACCAGCGUGUUAUAAAACAUGAGGAUCACCCAUGUAGUGAUCAAGCGCCCUUGGCAGCUGGUAUUUUAUG [7.C] | 92.3 | 166 |  |  | 58.1 |
| UAUAAUAACUCGGCCGCCACUGGCACAUGAGGAUCACCCAUGUCUAUAUAUAAUAUAUAGUUGCACAGGACCGGGAGAUAUAUAU [Exclusion - Tryptophan B] | 10.5 | 12.5 | 10.5 |  |  |
| UAUAUAUAUAGUGAUACCAGCAGAGAAAACGUUUAUCCUAACAUGAGGAUCACCCAUGUAUGCCCUUGGCAGCGUUAUAUAUAUA [8.E] | 21.2 | 29.1 |  |  | 21.9 |
| UAUAUAUAUAUGGAUACCAGCAGAGAAAACGUUUAUCCUAACAUGAGGAUCACCCAUGUAUGCCCUUGGCAGCUGUGUAUAUAUA [8.H] | 16.7 | 26.5 |  |  | 19.2 |
| UAUAUAUAUAUUGAUACCAGCAGAGAAAACAUAUAUCCUAACAUGAGGAUCACCCAUGUAUGCCCUUGGCAGCGAUAUAUAUAUA [8.A] | 24.9 | 28.1 |  |  | 23.5 |
